Target: KCNQ1 of the KCNQ1APO structure (human) (UniProt P51787)
Test: cryo-EM structure; human KCNQ1 with CaM, apo state; C4 symmetry, 2.5 Å

- stoichiometry N: 4
Substance: KCNQ1 of the KCNQ1APO structure (from UniProt P51787 1-676) (natural protein)

Reference: publication PMC12589563
